# Measured values taken from article doi:10.1101/506113 (bioRxiv, 2018).
# B1: vIRF-1-SmB (vIRF-1 with Small BiT at its C-terminal end) (natural protein)
# chain: MDPGQRPNPFGAPGAIPKKPCLSQGSPGTSGSGAPCDEPSRSESPGEGPSGTGGSAAAGDITRQAVVAAITEWSRTRQLRISTGASEGKASIKDWIVCQVNSGKFPGVEWEDEERTRFRIPVTPLADPCFEWRRDGELGVVYIRERGNMPVDASFKGTRGRRRMLAALRRTRGLQEIGKGISQDGHHFLVFRVRKPEEEQCVECGVVAGAVHDFNNMARLLQEGFFSPGQCLPGEIVTPVPSCTTAEGQEAVIDWGRLFIRMYYNGEQVHELLTTSQSGCRISSALRRDPAVHYCAVGSPGQVWLPNVPNLACEIAKRELCDTLDACAKGILLTSSCNGIFCVCYHNGPVHFIGNTVPPDSGPLLLPQGKPTRIFNPNTFLVGLANSPLPAPSHVTCPLVKLWLGKPVAVGKLEPHAPSPRDFAARCSNFSDACVVLEIMPKPLWDAMQ
# Target: LgB-NIX (NIX with Large BiT at its N-terminal end) (UniProt O60238 1-219)
# Sequence (O60238 whole entry): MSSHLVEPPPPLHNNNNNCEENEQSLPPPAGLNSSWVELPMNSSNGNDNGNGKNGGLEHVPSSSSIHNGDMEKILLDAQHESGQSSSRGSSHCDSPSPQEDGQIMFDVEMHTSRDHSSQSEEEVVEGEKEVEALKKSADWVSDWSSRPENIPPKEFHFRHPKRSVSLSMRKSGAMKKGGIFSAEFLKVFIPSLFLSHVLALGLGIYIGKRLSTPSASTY
# Experiment: split reporter
binder,measurement,value
B1,fold luminescence over HT-SmB with LgB-NIX,10 fold
